Laboratory results from patent US20240050583A1 (HARBOUR BIOMED SHANGHAI, published 2024).

Columns and labels:
human BCMA = biological target: T1, human BCMA (human, UniProt Q02223 1-184); assay: flow cytometry (FACS) on HEK293T-hBCMA and NCI-H929 cells, legend of FIG. 32
T1 construct: whole, on cells; also called hBCMA; tumor necrosis factor receptor superfamily member 17
T1 sequence (looked up): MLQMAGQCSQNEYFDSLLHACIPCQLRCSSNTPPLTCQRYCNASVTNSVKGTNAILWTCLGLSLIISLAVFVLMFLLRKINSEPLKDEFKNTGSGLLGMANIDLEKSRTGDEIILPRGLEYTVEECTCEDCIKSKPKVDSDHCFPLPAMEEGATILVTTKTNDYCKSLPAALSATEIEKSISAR

human 5T4 = biological target: T2, human 5T4 (human, UniProt Q13641 32-420); assay: flow cytometry (FACS) on HCC1954 cells highly expressing human 5T4
T2 construct: whole, on cells; also called trophoblast glycoprotein; TPBG
T2 sequence (looked up): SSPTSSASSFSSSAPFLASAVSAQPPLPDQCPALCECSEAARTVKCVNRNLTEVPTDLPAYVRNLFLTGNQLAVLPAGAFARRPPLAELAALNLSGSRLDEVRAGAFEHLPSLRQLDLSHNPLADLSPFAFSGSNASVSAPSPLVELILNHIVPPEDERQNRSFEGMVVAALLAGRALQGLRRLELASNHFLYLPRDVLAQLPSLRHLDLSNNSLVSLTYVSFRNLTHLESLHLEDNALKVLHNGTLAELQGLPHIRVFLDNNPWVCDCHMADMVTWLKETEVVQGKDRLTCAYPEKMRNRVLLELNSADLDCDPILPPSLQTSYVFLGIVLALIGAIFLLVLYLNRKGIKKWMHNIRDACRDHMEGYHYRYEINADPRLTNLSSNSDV
Protocol: The binding ability of the antibody molecules to a human breast cancer cell strain HCC1954 (ATCC, CRL-2338) highly expressing human 5T4 was determined by flow cytometry FACS. Specifically, the cell density was adjusted to 1×10⁶ cells/mL. The cells were seeded in a 96-well V-bottom plate (Corning, #3894) at 100 μL/well, followed by the addition of test antibodies diluted in a 3-fold gradient at a concentration that was 2 times the final concentration, each at 100 μL/well. The cells were incubated at 4° C. for 1 h away from light. Thereafter, the cells in each well were rinsed twice with 100 μL of pre-cooled PBS, and centrifuged at 500 g at 4° C. for 5 min, and then the supernatant was discarded. Thereafter, a fluorescent secondary antibody (Alexa Fluor 488-conjugated AffiniPure Goat Anti-Human IgG, Fcγ Fragment Specific, Jackson ImmunoResearch Inc., #109-545-098, diluted in a 1:500 ratio) was added at 100 μL/well, and the plate was incubated at 4° C. for 30 min away from light. The cells in each well were then rinsed twice with 100 μL of pre-cooled PBS and centrifuged at 500 g at 4° C. for 5 min, and then the supernatant was discarded. Finally, the cells in each well were resuspended in 200 μL of pre-cooled PBS. Fluorescence signal values were read using a BD FACS CANTOII flow cytometer, and the data were processed and analyzed using FlowJo v10 (FlowJo, LLC) software.

B1: PR004433-ADC (antibody, human IgG1, V domains shown)
VH: EVQLVETGGGLIQPGGSLRLSCAASGFTVSDSYMTWVRQAPGKGLEWVSVIFSGGRTYYSDSVKGRFTISRDNAKNTLYLQMNSLRAEDTALYYCARRNYDDTRGTDVFDIWGQGTMVTVSS
modifications: mc-vc-PAB-MMAE coupled to Cys-220 (Eu numbering; 98% of the site coupled)
notes: Coupling product of HCAb PR004433 with mc-vc-PAB-MMAE, main component DAR=2; also called coupling product PR004433-ADC
binding result (human BCMA): binds

B2: HCAb PR004432 (antibody, human IgG1, V domains shown)
VH: EVQLQQSGPGLVKPSQTLSLTCAISGDSVSNNYAAWNWIRQSPSRGLEWLGRTYYRSKWYNDYAVSVKSRITINPDTSKNQFSLQLNRVTPEDTAVYYCARDNYYGSGSPPVDALDIWGQGTMVTVSS
notes: Fully human heavy-chain-only antibody with human IgG1 hinge and Fc; also called 1041P014H2; anti-5T4 HCAb antibody PR004432
binding result (human 5T4): binds

B3: PR004432-ADC (antibody, human IgG1, V domains shown)
VH: B2 VH
modifications: mc-vc-PAB-MMAE coupled to Cys-220 (Eu numbering; 97.12% of the site coupled)
notes: Purified coupling product of HCAb PR004432 with mc-vc-PAB-MMAE, main component DAR=2; also called coupling product PR004432-ADC
binding result (human 5T4): binds
